Measurements: patent US20170129954A1 (PROTHENA BIOSCIENCES, published 2017)

Tests used:
recombinant laminin 511 = molecular target: T1, recombinant laminin 511 (UniProt O15230 36-3695; P07942 22-1786; P11047 34-1609); experiment: flow cytometry with pan-laminin antibody on CHO cells transfected with human MCAM
T1 construct: also called laminin 10 (α5β1γ1)

laminin α-4 = laminin α-4 (UniProt Q16363 25-1823); experiment: FACS on mammalian cells displaying the mutant
Source text: Twenty point mutants based on the structure information and shotgun mutagenesis information were designed and generated.

laminin α-4, sequence (Q16363 25-1823): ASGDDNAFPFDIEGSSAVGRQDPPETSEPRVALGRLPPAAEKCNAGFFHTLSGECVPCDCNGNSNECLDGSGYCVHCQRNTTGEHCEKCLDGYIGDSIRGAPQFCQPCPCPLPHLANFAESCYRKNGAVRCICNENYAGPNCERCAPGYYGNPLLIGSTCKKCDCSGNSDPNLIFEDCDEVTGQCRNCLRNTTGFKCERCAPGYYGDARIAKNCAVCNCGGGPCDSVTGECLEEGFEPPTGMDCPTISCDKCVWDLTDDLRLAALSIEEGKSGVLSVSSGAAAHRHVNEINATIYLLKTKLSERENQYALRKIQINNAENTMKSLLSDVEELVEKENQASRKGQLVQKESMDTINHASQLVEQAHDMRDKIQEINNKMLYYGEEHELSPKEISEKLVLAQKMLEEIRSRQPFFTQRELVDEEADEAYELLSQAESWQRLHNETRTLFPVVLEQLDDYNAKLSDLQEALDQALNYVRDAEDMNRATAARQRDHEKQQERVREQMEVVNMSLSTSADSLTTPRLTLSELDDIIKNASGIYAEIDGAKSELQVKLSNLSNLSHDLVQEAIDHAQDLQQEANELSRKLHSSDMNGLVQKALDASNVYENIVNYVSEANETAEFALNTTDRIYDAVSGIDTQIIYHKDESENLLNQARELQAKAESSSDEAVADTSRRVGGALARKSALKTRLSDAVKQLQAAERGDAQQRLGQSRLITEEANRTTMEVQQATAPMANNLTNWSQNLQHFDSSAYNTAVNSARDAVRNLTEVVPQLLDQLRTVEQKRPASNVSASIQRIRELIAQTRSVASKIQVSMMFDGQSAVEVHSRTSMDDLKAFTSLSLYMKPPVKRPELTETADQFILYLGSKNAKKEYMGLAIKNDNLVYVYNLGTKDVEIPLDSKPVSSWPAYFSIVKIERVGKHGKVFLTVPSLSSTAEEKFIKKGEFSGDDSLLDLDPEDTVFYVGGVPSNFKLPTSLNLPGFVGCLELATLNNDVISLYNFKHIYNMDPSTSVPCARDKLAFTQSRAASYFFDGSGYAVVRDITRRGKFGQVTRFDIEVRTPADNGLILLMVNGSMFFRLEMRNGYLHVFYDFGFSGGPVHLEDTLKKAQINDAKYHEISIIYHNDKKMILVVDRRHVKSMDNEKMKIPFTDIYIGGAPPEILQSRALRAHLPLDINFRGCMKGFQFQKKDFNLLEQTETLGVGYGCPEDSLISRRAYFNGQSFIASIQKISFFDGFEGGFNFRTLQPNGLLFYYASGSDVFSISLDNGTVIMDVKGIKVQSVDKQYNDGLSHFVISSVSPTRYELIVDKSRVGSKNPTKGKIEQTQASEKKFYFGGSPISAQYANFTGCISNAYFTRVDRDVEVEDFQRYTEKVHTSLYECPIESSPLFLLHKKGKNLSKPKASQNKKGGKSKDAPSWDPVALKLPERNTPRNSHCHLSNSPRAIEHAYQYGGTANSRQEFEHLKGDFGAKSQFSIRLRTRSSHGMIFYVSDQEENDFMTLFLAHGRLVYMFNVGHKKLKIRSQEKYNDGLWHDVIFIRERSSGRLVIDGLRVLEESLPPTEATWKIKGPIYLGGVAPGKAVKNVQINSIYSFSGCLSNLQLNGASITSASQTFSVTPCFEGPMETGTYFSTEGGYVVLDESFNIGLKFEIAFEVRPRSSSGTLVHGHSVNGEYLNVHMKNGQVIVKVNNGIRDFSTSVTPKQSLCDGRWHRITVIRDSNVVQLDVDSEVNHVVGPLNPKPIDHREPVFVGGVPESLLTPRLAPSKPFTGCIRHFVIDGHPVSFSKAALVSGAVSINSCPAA

B1: human MCAM, full length, expressed on transfected cells (receptor)
chain: VPGEAEQPAPELVEVEVGSTALLKCGLSQSQGNLSHVDWFSVHKEKRTLIFRVRQGQGQSEPGEYEQRLSLQDRGATLALTQVTPQDERIFLCQGKRPRSQEYRIQLRVYKAPEEPNIQVNPLGIPVNSKEPEEVATCVGRNGYPIPQVIWYKNGRPLKEEKNRVHIQSSQTVESSGLYTLQSILKAQLVKEDKDAQFYCELNYRLPSGNHMKESREVTVPVFYPTEKVWLEVEPVGMLKEGDRVEIRCLADGNPPPHFSISKQNPSTREAEEETTNDNGVLVLEPARKEHSGRYECQAWNLDTMISLLSEPQELLVNYVSDVRVSPAAPERQEGSSLTLTCEAESSQDLEFQWLREETDQVLERGPVLQLHDLKREAGGGYRCVASVPSIPGLNRTQLVKLAIFGPPWMAFKERKVWVKENMVLNLSCEASGHPRPTISWNVNGTASEQDQDPQRVLSTLNVLVTPELLETGVECTASNDLGKNTSILFLELVNLTTLTPDSNTTTGLSTSTASPHTRANSTSTERKLPEPESRGVVIVAVIVCILVLAVLGAVLYFLYKKGKLPCRRSGKQEITLPPSRKTELVVEVKSDKLPEEMGLLQGSSGDKRAPGDQGEKYIDLRH
notes: also called CD146; MUC18
- binding result (recombinant laminin 511): no binding (tested: 10 µg/ml)

B2: human MCAM Y318A single mutant displayed on mammalian cells (receptor)
chain: VPGEAEQPAPELVEVEVGSTALLKCGLSQSQGNLSHVDWFSVHKEKRTLIFRVRQGQGQSEPGEYEQRLSLQDRGATLALTQVTPQDERIFLCQGKRPRSQEYRIQLRVYKAPEEPNIQVNPLGIPVNSKEPEEVATCVGRNGYPIPQVIWYKNGRPLKEEKNRVHIQSSQTVESSGLYTLQSILKAQLVKEDKDAQFYCELNYRLPSGNHMKESREVTVPVFYPTEKVWLEVEPVGMLKEGDRVEIRCLADGNPPPHFSISKQNPSTREAEEETTNDNGVLVLEPARKEHSGRAECQAWNLDTMISLLSEPQELLVNYVSDVRVSPAAPERQEGSSLTLTCEAESSQDLEFQWLREETDQVLERGPVLQLHDLKREAGGGYRCVASVPSIPGLNRTQLVKLAIFGPPWMAFKERKVWVKENMVLNLSCEASGHPRPTISWNVNGTASEQDQDPQRVLSTLNVLVTPELLETGVECTASNDLGKNTSILFLELVNLTTLTPDSNTTTGLSTSTASPHTRANSTSTERKLPEPESRGVVIVAVIVCILVLAVLGAVLYFLYKKGKLPCRRSGKQEITLPPSRKTELVVEVKSDKLPEEMGLLQGSSGDKRAPGDQGEKYIDLRH
notes: also called Y318A mutant
- binding result (laminin α-4): no binding
